Tested on: Cc1cccc(O)c1O
Assay: purified protein
Conditions: 10 mM Mn2+, 50 mM phosphate pH 7.5, 32.5 °C

Question: How did the Km turn out when “BLC23O (Halalkalibacterium ligniniphilum)” was run?
Answer: 379 ± 86 µM

Question: What about the kcat of the same substance?
Answer: 0.13 ± 0.01 s⁻¹

Source: PMC9925492, “Reduction of phenolics in faba bean meal using recombinantly produced and purified Bacillus ligniniphilus catechol 2,3-dioxygenase” (Bioresources and Bioprocessing, 2023)
